The text below walks through data of the nanobody polyreactivity screen of Harvey et al. (2022).

This series can be described thus: yeast display, Sf9 membrane polyspecificity reagent, FACS + sequencing; frameworks hold sequencing errors. An outline of the steps: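 Galactose-induced (36–48 hours) yeast carrying a synthetic nanobody display library were exposed to 10% biotinylated, detergent-solubilized Sf9 membrane reagent at 4 °C for 1 hour. FACS followed streptavidin microbead enrichment, using low and high (top ~1%) gates for expression (anti-HA) and reagent binding (streptavidin). Colony PCR, MiSeq 2 × 250 sequencing and CDR-length filtering followed. Labels for polyreactivity reflect the gate of origin.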
On to “QVQLVESGGGLVQAGGSLLLSCAASGSTFYLYAMGWYRQAPGKEMELVASISQSGGSTFYADSVKGRFTISRDNAKYTVYLQMNSLKPEDTAVYYCAADPNRSTDTVVPGFDYWGQGTQVTVSS”, for which the “polyreactivity (PSR sort gate)” value is “high polyreactivity”.
Regarding “QVQLVESGGGLVQAGGSLLLSCAGTARNFTYNAMGWYRQAPGKERELVARITSGGNTNYADSVKGRFTISRDNAKNTVYLQMNSLKPEDTAVYYGATGLFWFTNRYGSWGQGTQVTVSS”, the “polyreactivity (PSR sort gate)” value is reported as “low polyreactivity”.
In the case of “QVQLVESGGGLVQAGGSLLLSCASSGFIFTKYTMGWYRLAPGKERELVAAITGRGTSTYADSVKGRFSMSRDNAKNTVYLQMNSLIPEDTAVYYCAAVGWFADFLFSDINGYYWGQGTQVTVSA”, the “polyreactivity (PSR sort gate)” value was “low polyreactivity”.
With “QVQLVESGGGLVQAGGSLPLRCAASGITFYGYTMGWYRQAPGKERELVAAITSVGSTYYADSVKGRFTISRDNAKNTVYLQMNSLKPEDTAVYYCNARPKFRTYNYWGQGTQVTVSS” the entry was “high polyreactivity”.
Turning to “QVQLVESGGGLVQAGGSLPLSCAASASIFSYYDMGWYRQAPGKERELVAAISWSGGSTYYADSVKGRFTISRDNAKNTVYLQMNSLKPEDTAVYYCAAGTYPYYWGQGTQVTVSS”, the “polyreactivity (PSR sort gate)” value is “low polyreactivity”.
For the sequence “QVQLVESGGGLVQAGGSLPLSCAASGITLYLYVMGWYRQAPGKEREFVAAIRWAGGSTYYADSVKGRFTISRDNAKNTVYLHMNSLKPEDTAVYYCNAEVYGYYSARRPGYEYWGQGTQVTVSS”, the “polyreactivity (PSR sort gate)” value is on record as “low polyreactivity”.
With “QVQLVESGGGLVQAGGSLPLSCAASGRIYGSYAMGWYRQAPGKERELVADISRRGGGTYYADSVKGRFTISRDNAKNTVYLQMNSLKPEDTAFYYCAKDWYGRYYYWGQGTQVTVSS” the entry was “high polyreactivity”; with “QVQLVESGGGLVQAGGSLPLSCAASGRTFDANAMGWSRQAPGKERELVAAISSDGSTNYADSVKGRFTISRDNAKNTVYLQMNSLKPEDTAVYYCATDGKPLIRYDYDYWGQGTQVTVSW”, “high polyreactivity”; with “QVQLVESGGGLVQAGGSLPLSCAASGSIFDGYAMGWYSQAPGKDRELDAGISKSGGRTYYADSVKGRFTISRDNAKNTVYLQMNSLKPEDTAVYYCATPGIRYDRVYRYDYWGQGTQVTVSS”, “high polyreactivity”.
The entry for “QVQLVESGGGLVQAGGSLPLSCAASGSTFRYNAMGWYRQAPAKERELVAAISSGSSTNYADSVKGRFTISLDNAKNTVYLQMKSLKPEDTAVYYCARRPFYYHQLDDDYWGQGTQVTVSS” is “low polyreactivity”.
For the sequence “QVQLVESGGGLVQAGGSLPLSCAASGSTFSPYDMGWYIQAPGKDRELVAVITGSDGTYYADSVKGRFTITRDNAKNTVYVQMNSLKPEDTAVYYCATDWNFGRWYTLGVEMDYWGQGTQVTVSS”, the “polyreactivity (PSR sort gate)” value is “low polyreactivity”.
Take “QVQLVESGGGLVQAGGSLPLSCAASRLIFTPYAMGWYIQAPGKERELVAAINYGGSRTYYADSVKGRFTISRDNAKNTVYLQMNSLKPEDTAVYYCAARGYTLSYVDMYYWGQGTQVTVSS”: the “polyreactivity (PSR sort gate)” value is reported as “high polyreactivity”.
As to “QVQLVESGGGLVQAGGSLPLSCASSGFTLVTYAMGWYRQAPGKERELVAAISSSGTSTYYADSVKARFTISRDNAKNTVYLQMNSLKPEDTAVYYCAVDDTHPFGPDGGGDYWGQGTQVTVSS”, the “polyreactivity (PSR sort gate)” value is “low polyreactivity”.
Consider “QVQLVESGGGLVQAGGSLPLSIAASGRIFHIYAMGWYRQAPGKERELVAAISGSTSYADSVKGRFTISRDNAKNTVNLQMNSLKPEDKAVYYCAARALLPNGEYWGQGTQVTVSS”, for which the “polyreactivity (PSR sort gate)” value is “low polyreactivity”.
With “QVQLVESGGGLVQAGGSLRFSCAASGFIFTYNAMGWYRQAPGKERELVAAITRNGVSTHYADSVKGRFTISRDNAKNSVYLQMNSLKPEDTAVYYCAADPRGWRHYYWGQGTQVTVSS” the entry was “low polyreactivity”.
In the case of “QVQLVESGGGLVQAGGSLRFSCAASGFIFVVNAMGGSRQAPGKEREFVAVISSSTGSTYYADSVKGRFTISRDNAKTTVYLQMNSLKPEDTAVYYCAAASRRRRPLKRMDYWGQGTQVTVSS”, the “polyreactivity (PSR sort gate)” value is “low polyreactivity”.
Turning to “QVQLVESGGGLVQAGGSLRFSCAASGFTFSSNAMGWYRQAPGKERELVAAITASGASTYYADSVKGRFTISRDHAKNTVYLQMNSLKPEDTAVYYCAVKTSPRRYYWGQGTQVTVSS”, the “polyreactivity (PSR sort gate)” value is listed as “high polyreactivity”.
Turning to “QVQLVESGGGLVQAGGSLRFSCAASGFTFVYYVMGWYRQAPGKERELVAAINAGGGSTYYADSVKGRFTISRDNAKNTVYLQMNSLKPEDTAVYYCNARVRLGRNWSSYYYWGQGTQVTVSS”, the “polyreactivity (PSR sort gate)” value was “high polyreactivity”.
For the sequence “QVQLVESGGGLVQAGGSLRFSCAASGFTFYPNTMGWYRQAPGTERELVAAISSSGGRTYYADSVKGRFTISRDNAKNTVYLQMNSLKPEDNAVYYCNAAKWLTSGGLDYWGQGTQVTVSS”, the “polyreactivity (PSR sort gate)” value was “high polyreactivity”.
The entry for “QVQLVESGGGLVQAGGSLRFSCAASGIIFYYKTMGLYRQAPGKERELVASITWSGDTTYYAYSVKGRYTISRDNAKNSVYLQMNSLKPEDTAVYYCAAACYWYPSYSSYLGMYYWGQGTKVTVSS” is “low polyreactivity”; for “QVQLVESGGGLVQAGGSLRFSCAASGLTFNHNAMGWYRQAPGKERELVAAISRRGGSTYYADSVKGRFTISRDNAKNTVYVQMNSLKPEDTAVYYCNKDFPTLYSRGRYIYWGQGTQVTVSS” it is “high polyreactivity”; for “QVQLVESGGGLVQAGGSLRFSCAASGNIIDLYAMGWYRQARGQERVLVAAITRSSSRTYYADSVKGRFTISRDIAKNTVYLQMNSLKPEDTAVYYCRANQVNRLDYWGQGTQVTVSS” it is “high polyreactivity”.
As for “QVQLVESGGGLVQAGGSLRFSCAASGRIFPAYAMGWYRQAPGKEREWVDAISRRGGSTYYADTVKGRFTISRDNAKNTVYLQMNSLNPEDTAVYYCAKEVWDSLGYPHSGDYWGQGTQVTVSS”, the “polyreactivity (PSR sort gate)” value was “low polyreactivity”.
Take “QVQLVESGGGLVQAGGSLRFSCAASGRIFWYYVMGWDRQAPGKEREFVASISSGGSTYYADSVKGRFTISRDNANNTVYLQMNSLKPEDTAVYYCNAYVYGQRVWYDYWGQGTQVTVSS”: the “polyreactivity (PSR sort gate)” value is reported as “high polyreactivity”.
Turning to “QVQLVESGGGLVQAGGSLRFSCAASGRTFQYYTMGWSRQAPGKEREFVAAIRDSGGSTYYADSVKGRFTISRDNAKNTVYLQMNSLKPEDTAVYYCAAYRPRKYDYWGQGTQVTVSS”, the “polyreactivity (PSR sort gate)” value is on record as “high polyreactivity”.
On to “QVQLVESGGGLVQAGGSLRFSCAASGRTFYPYAMGWYRQAPGKERELVAAINGGGRTYYADSVKGRFTISRDNAKNTVYLQMNSLKPEDTAVYYCATRYPAWRYDYNYWGQGTQVSVSS”, for which the “polyreactivity (PSR sort gate)” value is recorded as “high polyreactivity”.
Regarding “QVQLVESGGGLVQAGGSLRFSCAASGSIFITYAMGWSRQAPGKERELVAAIRDSGDRTYYADSVKGRFTISRDNAKNTVYLQMNSLKPEDTAVYYCNARWQEPLKYDYWGQGTQVTVSS”, the “polyreactivity (PSR sort gate)” value is on record as “low polyreactivity”.
“QVQLVESGGGLVQAGGSLRFSCAASGSIFSVYAMGWYRQAPGKEREWVAAITSGTYTYADSVKGRFTISRDNAKNSVYLQMNSLKAEDTAVYYCAAESGSPGYYYWGQGTQVTVST”: the “polyreactivity (PSR sort gate)” value is listed as “low polyreactivity”.
With “QVQLVESGGGLVQAGGSLRFSCAASGSIFYGYTMGWYRQAPGKERELVAGISTYYADSVKGRFTISRDTAKNTVYLQMNSLKPEDTAVYYCAADYSSPTSEYDYWGQGTQVTVSS” the entry was “low polyreactivity”; with “QVQLVESGGGLVQAGGSLRFSCAASGSTFFSYAMGWYRQAPGKERELVATIRGSAGRTYYADSVKGRFTISRDHANYTVYLQMNSLKPEDTAVYYCARRYWPGSAYWIYDYWGQGTQVTVSS”, “high polyreactivity”; with “QVQLVESGGGLVQAGGSLRFSCAASGSTFSYYAMGWYRQAPRKEREFVAAMSWNGGSTYYADSVKGRYTISRDNAKNTVYLHMNSLKPEDTEVYYCAADFKYGYSHGFRQRLYDYWGQGTQVTVSS”, “low polyreactivity”.
For the sequence “QVQLVESGGGLVQAGGSLRFSCAASGSTFVYNAMGWYRQAAGQERELVAVITYRGGRTYYADSVKGRFTISRDNAKNTVYLQINSLKPEDTAVYYCAAQTFRYRKKLDYWGQGTQVTVSS”, the “polyreactivity (PSR sort gate)” value is recorded as “high polyreactivity”.
Turning to “QVQLVESGGGLVQAGGSLRFSCAASGSTFYYYAMGWYRQAPGKERELVAAINTSGGITYYADSVKGRFTISRDNAKNTVYLQMNSLKPEDTAVYYCATQLWDRYGFGYWGQGTQVTVSS”, the “polyreactivity (PSR sort gate)” value is “high polyreactivity”.
For “QVQLVESGGGLVQAGGSLRFSCAASGTFVPYAMGWYRQAPGKEMELVARITWRGGSTYYADSVKGRFTISRDNANNTVYLQMNSLKPEETAVYYCATVSDNRYYYWGQGTQVTVSS”, the “polyreactivity (PSR sort gate)” value is on record as “low polyreactivity”.
Consider “QVQLVESGGGLVQAGGSLRFSCADSGSIFVRYAMGWYRQAPGKERELVAAISVRGGRTYYADSVKGRFTISRDNAKNTVYLQMNSLKPEDTAVYYCAAQLYYYYTYVPPGGYWGQGTQVTVSS”, for which the “polyreactivity (PSR sort gate)” value is “high polyreactivity”.
Regarding “QVQLVESGGGLVQAGGSLRFSCDASGRSFYINAMGWYRQAPGKERELVAAITWSGGRTYYADSVKGRFTISRDNAKNTVYLQMNSLKPEDTAVYYCNTRSYSFYVPYRYDYWGQGTHVTVSS”, the “polyreactivity (PSR sort gate)” value is reported as “high polyreactivity”.
With “QVQLVESGGGLVQAGGSLRFTCAASGRTFIGYAMGWYRHAPGKERELVATISVSGGSTYYADSVKGRYTISRDNAKKTVYLHMNSLKPEDTAVYYCAKAYLRYYDGPYDYWGQGTQVTLSS”, the “polyreactivity (PSR sort gate)” value is “low polyreactivity”.
For the sequence “QVQLVESGGGLVQAGGSLRIICAASGRTFSYYAMGWYRQAPGKERELVAAITAGGNTYYADSVKGRFTISRDNAKNTVYLQMNSLKAEDTAVYYCAATYYWAWGGVYHSEFDYWGQGTQETVSS”, the “polyreactivity (PSR sort gate)” value is listed as “low polyreactivity”.
Turning to “QVQLVESGGGLVQAGGSLRIICAASGSTLGYNAMGWYRQAPGKERELVAAISSDGGSTYYADSVKGRFTISRDNAKNTVYLQMNSLKPEDTAVYYCAAYYYTPGYGSWGQGTQVTVSS”, the “polyreactivity (PSR sort gate)” value is recorded as “low polyreactivity”.
Take “QVQLVESGGGLVQAGGSLRIRCAASGGIFPPNAMGWYRHPPGKERELVASISSDGSTNYADSVKGRFTISRDNAKNNVILQMNSLKPEDTAVFYCNATHEAFELDYWGQGTQVNVSS”: the “polyreactivity (PSR sort gate)” value is recorded as “low polyreactivity”.
With “QVQLVESGGGLVQAGGSLRIRCAASGLIFGFYAMGWYRQAPGKERELVAAINSGGITYYADSVKGRFTISRDNAKNTVYLQMNSLKPEDTAVYYCNKDSHISTAYDYWGQGTQVTVSS” the entry was “low polyreactivity”.
